Assays:
[1] = molecular target: T1, human CD20 (human, UniProt P11836 1-297); test: cell-based or functional assay
T1 sequence (looked up): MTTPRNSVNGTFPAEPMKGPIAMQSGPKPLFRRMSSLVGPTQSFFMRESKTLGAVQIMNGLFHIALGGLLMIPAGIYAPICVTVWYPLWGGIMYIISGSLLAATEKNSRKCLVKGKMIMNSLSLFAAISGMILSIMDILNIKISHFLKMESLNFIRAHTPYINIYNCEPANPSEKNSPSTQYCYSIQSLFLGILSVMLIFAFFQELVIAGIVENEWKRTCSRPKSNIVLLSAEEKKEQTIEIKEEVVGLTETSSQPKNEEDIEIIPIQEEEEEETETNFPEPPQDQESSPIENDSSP

[2] = molecular target: T2, mouse CD20 (mouse, UniProt P19437 1-291, limits assumed); test: not described
T2 construct: Named only as mouse CD20
T2 sequence (looked up): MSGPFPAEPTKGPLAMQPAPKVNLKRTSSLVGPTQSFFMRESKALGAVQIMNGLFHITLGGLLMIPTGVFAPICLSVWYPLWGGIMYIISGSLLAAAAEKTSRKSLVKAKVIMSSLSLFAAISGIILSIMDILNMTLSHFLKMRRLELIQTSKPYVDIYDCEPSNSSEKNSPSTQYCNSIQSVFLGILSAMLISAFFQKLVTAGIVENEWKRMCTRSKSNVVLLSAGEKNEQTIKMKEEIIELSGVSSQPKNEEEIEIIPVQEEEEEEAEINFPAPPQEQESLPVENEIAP

B1: XmAb®13676 (XENP13676 Anti-CD20 × Anti-CD3 Fab-scFv-Fc) (bispecific antibody)
heavy: QVQLVQSGAEVKKPGASVKVSCKASGYTFTSYNMHWVRQAPGQGLEWMGAIYPGNGDTSYNQKFQGRVTITADKSISTAYMELSSLRSEDTAVYYCARSTYYGGDWYFNVWGAGTLVTVSSASTKGPSVFPLAPSSKSTSGGTAALGCLVKDYFPEPVTVSWNSGALTSGVHTFPAVLQSSGLYSLSSVVTVPSSSLGTQTYICNVNHKPSDTKVDKKVEPKSCDKTHTCPPCPAPPVAGPSVFLFPPKPKDTLMISRTPEVTCVVVDVKHEDPEVKFNWYVDGVEVHNAKTKPREEEYNSTYRVVSVLTVLHQDWLNGKEYKCKVSNKALPAPIEKTISKAKGQPREPQVYTLPPSREEMTKNQVSLTCDVSGFYPSDIAVEWESDGQPENNYKTTPPVLDSDGSFFLYSKLTVDKSRWEQGDVFSCSVMHEALHNHYTQKSLSLSPGK
chain: not shown
light: QIVLTQSPSSLSASVGDRVTITCRASSSVSYIHWFQQKPGKSPKPLIYATSNLASGVPVRFSGSGSGTDYTLTISSLQPEDFATYYCQQWTSNPPTFGGGTKVEIKRTVAAPSVFIFPPSDEQLKSGTASVVCLLNNFYPREAKVQWKVDNALQSGNSQESVTEQDSKDSTYSLSSTLTLSKADYEKHKVYACEVTHQGLSSPVTKSFNRGEC
notes: The anti-CD20 Fv is derived from murine antibody C2B8; also called plamotamab
EC50 of Jeko-1 target cell killing (RTCC) in the presence of 3 µg/ml rituximab [1]: 0.051 µg/mL | EC50 of Jeko-1 target cell killing (RTCC) in the presence of 10 µg/ml rituximab [1]: 0.093 µg/mL | EC50 of Jeko-1 target cell killing (RTCC) in the presence of 30 µg/ml rituximab [1]: 0.162 µg/mL | EC50 of Jeko-1 target cell killing (RTCC) in the presence of 100 µg/ml rituximab [1]: 0.387 µg/mL | EC50 of Jeko-1 target cell killing (RTCC), no rituximab [1]: 0.024 µg/mL | EC50 of RTCC against Ramos cells with purified T cells from six healthy donors [1]: 0.0053 to 0.0143 µg/mL | binding result [2]: no binding

— patent US20230048390A1 (Xencor, published 2023)
